From article PMC4175358, “Conformational Analysis of the Streptococcus pneumoniae Hyaluronate Lyase and Characterization of Its Hyaluronan-specific Carbohydrate-binding Module*^([image sbox.jpg])” (The Journal of Biological Chemistry, 2014) come the findings set out here.

Some results are limits rather than exact numbers.

In one data set the target is T1, SpCBM70 (Streptococcus pneumoniae, UniProt Q54873).
T1 construct: gene SP_0314; N-terminal CBM70 module, Lys53-Ser212, N-terminal His6 tag with thrombin site (pET28), recombinant in E. coli; ITC construct; 4D0Q is the C-terminally His6-tagged Asn54-Ser212 form, unliganded
The experiment in a line: isothermal titration calorimetry. In kind it is binding. The following applies: 25 °C, 25 mM Tris-HCl pH 7.5, 50 mM NaCl; too weak to quantify. From the text: isothermal titration calorimetry on SpCBM70
(In general: In ITC the heat of successive injections is recorded.)

Data set [1] concerns the molecule itself. Kind of data set: small angle X-ray scattering; 50 mM Tris-HCl pH 8.0, 500 mM NaCl, 288 K, Hyl 1.0-10.8 mg/ml; monomer/dimer mixture modelled with SASREF7MX (P2 symmetry, 30 runs each at 1.0-2.7 mg/ml) and OLIGOMER; Kd = [monomer]^2/[dimer], dimer to monomers.
Data set [2] concerns the molecule itself. Kind of data set: dynamic light scattering; 25 °C, triplicate, 15 acquisitions of 5 s, after size exclusion chromatography and 0.22 µm filter; Hyl 1.0-10.8 mg/ml, PL8 1.4-10.9 mg/ml; associated fraction from expected radii of a globular monomer and dimer; Kd = [monomer]^2/[dimer], dimer to monomers. Background: In gel filtration, larger molecules generally elute earlier.

On to Hyaluronan 4-mer, for which the Ka on SpCBM70 is on record as > 5 × 10^3.

B1: Streptococcus pneumoniae hyaluronate lyase, construct with the CBM, middle (linker) and PL8 domains (residues Lys53-Lys1006) (enzyme)
chain: KNLVENGDFGQTEDGSSPWTGSKAQGWSAWVDQKNSADASTRVIEAKDGAITISSHEKLRAALHRMVPIEAKKKYKLRFKIKTDNKIGIAKVRIIEESGKDKRLWNSATTSGTKDWQTIEADYSPTLDVDKIKLELFYETGTGTVSFKDIELVEVADQLSEDSQTDKQLEEKIDLPIGKKHVFSLADYTYKVENPDVASVKNGILEPLKEGTTNVIVSKDGKEVKKIPLKILASVKDAYTDRLDDWNGIIAGNQYYDSKNEQMAKLNQELEGKVADSLSSISSQADRTYLWEKFSNYKTSANLTATYRKLEEMAKQVTNPSSRYYQDETVVRTVRDSMEWMHKHVYNSEKSIVGNWWDYEIGTPRAINNTLSLMKEYFSDEEIKKYTDVIEKFVPDPEHFRKTTDNPFKALGGNLVDMGRVKVIAGLLRKDDQEISSTIRSIEQVFKLVDQGEGFYQDGSYIDHTNVAYTGAYGNVLIDGLSQLLPVIQKTKNPIDKDKMQTMYHWIDKSFAPLLVNGELMDMSRGRSISRANSEGHVAAVEVLRGIHRIADMSEGETKQCLQSLVKTIVQSDSYYDVFKNLKTYKDISLMQSLLSDAGVASVPRPSYLSAFNKMDKTAMYNAEKGFGFGLSLFSSRTLNYEHMNKENKRGWYTSDGMFYLYNGDLSHYSDGYWPTVNPYKMPGTTETDAKRADSDTGKVLPSAFVGTSKLDDANATATMDFTNWNQTLTAHKSWFMLKDKIAFLGSNIQNTSTDTAATTIDQRKLESGNPYKVYVNDKEASLTEQEKDYPETQSVFLESFDSKKNIGYFFFKKSSISMSKALQKGAWKDINEGQSDKEVENEFLTISQAHKQNRDSYGYMLIPNVDRATFNQMIKELESSLIENNETLQSVYDAKQGVWGIVKYDDSVSTISNQFQVLKRGVYTIRKEGDEYKIAYYNPETQESAPDQEVFKK
notes: Hyaluronate lyase (Hyl) of Streptococcus pneumoniae, a 1066-amino acid protein; residues Lys53-Lys1006, amplified from genomic DNA; lacks the N-terminal secretion signal peptide and the C-terminal cell-wall anchoring motif; the results section prints 53-1007; The His6 tag is joined by a thrombin cleavage site; Theoretical mass printed as 110.6 kDa; In solution a monomer/dimer mixture; also called …
Turning to B1, the dissociation constant Kd was about 43 µM in data set [1] and about 37 µM in data set [2]. In addition, the “stoichiometry N” value in data set [1] worked out at 2.

B2: PL8 catalytic domain of Streptococcus pneumoniae hyaluronate lyase (residues Lys288-Gln1009) (domain or fragment)
chain: KDAYTDRLDDWNGIIAGNQYYDSKNEQMAKLNQELEGKVADSLSSISSQADRTYLWEKFSNYKTSANLTATYRKLEEMAKQVTNPSSRYYQDETVVRTVRDSMEWMHKHVYNSEKSIVGNWWDYEIGTPRAINNTLSLMKEYFSDEEIKKYTDVIEKFVPDPEHFRKTTDNPFKALGGNLVDMGRVKVIAGLLRKDDQEISSTIRSIEQVFKLVDQGEGFYQDGSYIDHTNVAYTGAYGNVLIDGLSQLLPVIQKTKNPIDKDKMQTMYHWIDKSFAPLLVNGELMDMSRGRSISRANSEGHVAAVEVLRGIHRIADMSEGETKQCLQSLVKTIVQSDSYYDVFKNLKTYKDISLMQSLLSDAGVASVPRPSYLSAFNKMDKTAMYNAEKGFGFGLSLFSSRTLNYEHMNKENKRGWYTSDGMFYLYNGDLSHYSDGYWPTVNPYKMPGTTETDAKRADSDTGKVLPSAFVGTSKLDDANATATMDFTNWNQTLTAHKSWFMLKDKIAFLGSNIQNTSTDTAATTIDQRKLESGNPYKVYVNDKEASLTEQEKDYPETQSVFLESFDSKKNIGYFFFKKSSISMSKALQKGAWKDINEGQSDKEVENEFLTISQAHKQNRDSYGYMLIPNVDRATFNQMIKELESSLIENNETLQSVYDAKQGVWGIVKYDDSVSTISNQFQVLKRGVYTIRKEGDEYKIAYYNPETQESAPDQEVFKKLEQ
notes: Hyaluronate lyase (Hyl) of Streptococcus pneumoniae, PL8 catalytic domain, residues Lys288-Gln1009; The His6 tag is joined by a thrombin cleavage site; Expected mass printed as 82 kDa; also called PL8 domain; isolated PL8 domain; source: recombinant, pET28, autoinduction culture
As for B2, in data set [2], the equilibrium dissociation constant (Kd) was about 180 µM and the “stoichiometry N” value was determined as 2.

Broadly, the Kd is the concentration at which binding is half-saturated. The term stoichiometry N denotes a count of units in the complex or per binding partner.
